Non-specific binding call data for 218 variants are collected here from the emibetuzumab library of Makowski et al. (2022).

The labels stand for the following.
B1: VH:VL chains; a variant is named by its letters at X, in order (parent)
chain 1: QVQLVQSGAEVKKPGASVKVSCKASGYTFTDYXMHWVRQAPGQGLEWMGXVNPNXXXTTYNQKFEGRVTMTTDTSTSTAYMELRSLRSDDTAVYYCARXNXLDXWGQGTTVTVSS
chain 2: DIQMTQSPSSLSASVGDRVTITCSVSSSVSSIYLHWYQQKPGKAPKLLIYSTSNLASGVPSRFSGSGSGTDFTLTISSLQPEDFATYYCQVYSGYPLTFGGGTKVEIK

The variants in this series derive from B1. The experiment in a line: yeast display scFab, FACS + sequencing. A digest of the protocol: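 Non-specific binding was called from deep sequencing of sorted yeast cells displaying a heavy-chain CDR mutant scFab library. Cells labelled with anti-Myc and biotinylated ovalbumin (260 μg/mL in PBSB, 3 h, room temperature) or soluble membrane proteins (130 μg/mL, 20 min on ice) were FACS-sorted, collecting the top 25% and bottom 10% of binders from two replicates. A sequence was positive when present in ≥3 of 4 pooled positive samples and absent from all negatives, and negative under the converse rule.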
As to SEGRGDGA, the non-specific binding call is recorded as “no binding”. For YEGGGYSF the value was “no binding”; for YEKGGAWS, “binds”; for VEKEGDWY, “no binding”. For VEGGGSSS the value was “no binding”; for VEGGGSSV, “no binding”. The value for VEGGGSSA was “no binding”; that for YEGGGSAV was “no binding”; that for YEGGGSSA was “no binding”.

As to VEGGGDVD, the non-specific binding call was “no binding”. For VEGGGDVY the value was “no binding”; for VEGGGDVA, “no binding”; for VEGGGDVV, “no binding”. The value for VEGGTDVV was “no binding”; that for VEGGTDVA was “no binding”. The value for YEGGTDGA was “no binding”. Take VEGTGDWD: the non-specific binding call was “no binding”. Consider VEETSSLD, for which the non-specific binding call is listed as “no binding”. For SEGRGSGV the value was “no binding”. The value for SEGTGSGD was “no binding”; that for DEGTDYAA was “binds”. Turning to VEEEGSAD, the non-specific binding call is “no binding”. For VEEEGSAV the value was “no binding”. The value for DEGGDAGD was “no binding”.

AEEEGSAA: the non-specific binding call is on record as “no binding”. As for SEEEGDVA, the non-specific binding call is listed as “no binding”.

Turning to FEETDAGD, the non-specific binding call is recorded as “binds”.

YEEGTDWY: the non-specific binding call is given as “no binding”. For DEGGGDGA the value was “no binding”. For DEETNSGA the value was “binds”. For VEGGGAWA the value was “no binding”; for VEGTSAGD, “no binding”; for SEEGTAGD, “no binding”.

Take SEEGTAGA: the non-specific binding call is listed as “no binding”. For SEEGTDGV the value was “no binding”.

In the case of VEEEGDVY, the non-specific binding call is recorded as “no binding”. VEEEGDVA: the non-specific binding call is given as “no binding”. On to DEGGTSLD, for which the non-specific binding call is recorded as “no binding”. For YEGRGDVA the value was “no binding”; for DEGGTSAD, “no binding”; for VEGGGDGA, “no binding”.

In the case of VEGGGDGV, the non-specific binding call is “no binding”. Take VEGGGDGD: the non-specific binding call is recorded as “no binding”.

DEGGTDGS: the non-specific binding call is “no binding”. For DEGGTDGV the value was “no binding”; for DEGGTDGY, “no binding”. In the case of DEGGTSSA, the non-specific binding call is listed as “no binding”. The value for VEGGGSVD was “no binding”; that for VEEEGDGV was “no binding”. For VEEEGDGA the value was “no binding”; for DEGGGAGS, “no binding”; for VEGTSDVV, “no binding”. For VEKEGAGD, the non-specific binding call was “no binding”.

Regarding VEGTSASV, the non-specific binding call is on record as “no binding”.

In the case of VEGGADVF, the non-specific binding call was “no binding”. Regarding YEGGTSGA, the non-specific binding call is on record as “no binding”. Consider VEEEGDAV, for which the non-specific binding call was “no binding”. The value for VEEEGDAA was “no binding”; that for FEGGTDVV was “no binding”; that for FEETDASA was “binds”. Turning to DEGAGDGF, the non-specific binding call was “binds”. For VEGRGDGY the value was “no binding”; for VEGRGDGA, “no binding”; for YEGTGSLS, “no binding”. For SEGRGAWY the value was “no binding”. Take SEEEGASV: the non-specific binding call is “no binding”.

In the case of YEGTGDVV, the non-specific binding call is recorded as “no binding”.

Consider VEGEDAAA, for which the non-specific binding call was “no binding”.

As to YEGGGFSV, the non-specific binding call was “no binding”.

In the case of SEGGTDVV, the non-specific binding call was “no binding”.

Take DEGRGDWY: the non-specific binding call was “no binding”. Regarding VEEEGSVD, the non-specific binding call is on record as “no binding”. For VEEEGSVV the value was “no binding”; for VEEEGSVS, “no binding”; for FEEGTDWY, “no binding”.

For YEGTGSAD, the non-specific binding call is given as “no binding”. The value for VEERDAVA was “no binding”. The value for YEGGGDLV was “no binding”. The value for SEGGDAGD was “no binding”; that for VEEEGDWV was “no binding”; that for VEEEGDWD was “no binding”. Consider DEEEGSAA, for which the non-specific binding call is “no binding”.

On to SEGTGSSV, for which the non-specific binding call is reported as “no binding”. For SEGRGAAA the value was “no binding”; for VEGAASWV, “no binding”.

As to VEGAASWF, the non-specific binding call was “no binding”. The value for FEEEGSAA was “no binding”; that for VEGTNDVV was “no binding”. Turning to AEGTNAGD, the non-specific binding call is listed as “no binding”. VEKEGDGS: the non-specific binding call is “no binding”. For VEKEGDGA the value was “no binding”; for VEKEGDGV, “no binding”; for YEGGTDVV, “no binding”. Turning to SEGTGDWV, the non-specific binding call is “no binding”.

In the case of YEGAASWF, the non-specific binding call is reported as “no binding”. The value for DEGGTDWD was “no binding”; that for DEGGTDWY was “no binding”; that for DEGGTDWV was “no binding”. Regarding VEGGGYSV, the non-specific binding call is given as “no binding”. For VEERDAGD the value was “no binding”; for YEGGGDVA, “no binding”; for YEGGGDVY, “no binding”. With VEGAAAGS, the non-specific binding call is given as “no binding”.

Consider YEGGGDGD, for which the non-specific binding call is “no binding”. For YEGGGDGA the value was “no binding”; for VEGGGSGV, “no binding”.

Take YEGGADVD: the non-specific binding call was “no binding”. For YEGGADVA the value was “no binding”; for YEGGADVF, “no binding”; for YEGGADVV, “no binding”.

For SEEEGAGD, the non-specific binding call is recorded as “no binding”. The value for YEGTGSGD was “no binding”. The value for VEEEGALD was “no binding”; that for DEGGTAAA was “no binding”. The value for AEGRGAVY was “no binding”; that for SEEGSDAS was “no binding”. With DEGGTAGV, the non-specific binding call was “no binding”. The value for DEGGTAGA was “no binding”; that for SEGTGAGV was “no binding”. Turning to SEGTSAVF, the non-specific binding call is on record as “no binding”. The value for YEKETVVA was “binds”; that for DEGGGSSA was “no binding”. For SEGRGDVY the value was “no binding”; for VEKGGDAA, “no binding”. For the variant YEKGGAGD, the non-specific binding call is recorded as “no binding”.

As for VEEEGSWV, the non-specific binding call is given as “no binding”.

For SEEEGSGV, the non-specific binding call is reported as “no binding”. For VEGRGDVF the value was “no binding”; for SEKEGDAA, “no binding”. The value for VEEEGAGD was “no binding”; that for VEEEGAGV was “no binding”. The value for DEGTGAVA was “no binding”.

Regarding DEGKDDVA, the non-specific binding call is listed as “no binding”. For YEERSDAF the value was “no binding”; for VEGTGAGD, “no binding”. On to VEGGGFSV, for which the non-specific binding call was “no binding”.

Regarding VEGTSAVF, the non-specific binding call is given as “no binding”. For VEGTSAVY the value was “no binding”. SEGRGDAA: the non-specific binding call is “no binding”. The value for DEGGTDAV was “no binding”; that for DEGGTDAA was “no binding”; that for DEGGTSGV was “no binding”. The value for VEGGGFAY was “no binding”; that for FEKEADAF was “binds”; that for VEEEGSGA was “no binding”. The value for VEEEGSGV was “no binding”.

Turning to VEGTSAAY, the non-specific binding call is given as “no binding”. The value for YEGTGAVF was “no binding”. For YEGGGDWV the value was “no binding”. The value for YEGGGDWF was “no binding”; that for SEEGTDWY was “no binding”; that for SEEGTDWD was “no binding”. Turning to VEGGNDGA, the non-specific binding call is “no binding”. The value for YEGTGAGA was “no binding”; that for FEKEGDAA was “no binding”. With DEKEGDAA, the non-specific binding call is listed as “no binding”. As for DEGRGSWA, the non-specific binding call was “no binding”. For VEGGGAAA the value was “no binding”. On to VEGGGAAS, for which the non-specific binding call is “no binding”.

Turning to DEGGTDSF, the non-specific binding call is on record as “no binding”. The value for DEGGTDSA was “no binding”; that for VEGTGVGD was “binds”. For DEGTGALA the value was “no binding”.

In the case of VEGRGDAV, the non-specific binding call is recorded as “no binding”.

With VEGTSSLD, the non-specific binding call is listed as “no binding”. The value for SEGGDAWV was “no binding”. The value for VEGGGDAA was “no binding”; that for DEGGTALA was “no binding”. The value for AEEKGSGD was “no binding”. For SEEEGSAA, the non-specific binding call is “no binding”.

As for DEGGTSVD, the non-specific binding call was “no binding”. For DEGKAAGS the value was “no binding”; for DEGRGDGV, “no binding”. With VEERDDWF, the non-specific binding call is given as “no binding”. As for SEGADAGD, the non-specific binding call is on record as “no binding”.

Regarding VEEEGDSA, the non-specific binding call is reported as “no binding”. In the case of VEGGTAGS, the non-specific binding call was “no binding”. The value for VEGGGYGV was “no binding”; that for VEGADAVA chain 1 G106S was “no binding”; that for YEERTAAA was “binds”.

On to VEGGGDWA, for which the non-specific binding call is on record as “no binding”. The value for VEGGGDWS was “no binding”. The value for AEERASAF was “binds”; that for VEGTSDGD was “no binding”; that for AEERDSVV was “no binding”. As to VEGTSSGD, the non-specific binding call was “no binding”. For SEEEGDWV the value was “no binding”; for DEGKGFGS, “binds”. The value for VEGRGAVY was “no binding”; that for YEKEDYLA chain 1 G108D was “no binding”; that for DEGGTDLD was “no binding”. The value for VEKEGDAD was “no binding”; that for VEGGGAVV was “no binding”; that for VEKEGDVY was “no binding”. Regarding DEGGDDAA, the non-specific binding call is given as “no binding”.

On to AEGTSAVF, for which the non-specific binding call was “no binding”.

On to VEGAADVD, for which the non-specific binding call was “no binding”.

Consider VEGTSSSV, for which the non-specific binding call is on record as “no binding”. With DEGEDAGA, the non-specific binding call was “no binding”. Consider YEGTGSWA, for which the non-specific binding call is on record as “no binding”. For VEGKGAGD the value was “no binding”; for VEGTSDLS, “no binding”. Consider DEGRSVAA, for which the non-specific binding call is recorded as “binds”. For DEGGTDVF the value was “no binding”.

Turning to DEGGTDVA, the non-specific binding call was “no binding”.

Regarding DEGGTDVD, the non-specific binding call is recorded as “no binding”. The value for DEGGTDVY was “no binding”; that for DEGGTAVA was “no binding”.

On to DEGGTAVV, for which the non-specific binding call is “no binding”. The value for VEGGGAGV was “no binding”; that for FEERNSLD was “binds”. For AEGGTDVV the value was “no binding”; for VEGEDAGA, “no binding”; for YEGRNVGV, “binds”. With SEGADAVA chain 1 G106S, the non-specific binding call is “no binding”.

Consider SEGGSAAY, for which the non-specific binding call was “no binding”. YEKETAGV: the non-specific binding call is reported as “binds”.

In the case of SEEEGDAV, the non-specific binding call is “no binding”.
